The source of these data is paper PMC6224480, “Insights into Kinesin-1 Activation from the Crystal Structure of KLC2 Bound to JIP3” (Structure(London, England:1993), 2018).

A short description of series [1]: CD spectroscopy. Type of series: physicochemical. The conditions noted are these: 20°C, 20 mM potassium phosphate pH 7.5, 0.5 mM DTT. On the procedure: All CD spectra were recorded on a Chirascan CD spectrometer (Applied Photophysics) in quartz cuvettes with a 0.1 cm path length. Data were recorded at 20°C between 260 - 180 nm in 1 nm increments and a 2 nm bandwidth over an average of two scans. The KLC2^TPR-myc and Trp-JIP3^LZ proteins were dialysed extensively into 20 mM potassium phosphate pH 7.5, 0.5 mM DTT. Spectra were collected from KLC2^TPR-myc samples at concentrations of 0.29, 0.14 and 0.086 mg/ml. Trp-JIP3^LZ spectra were collected at 0.15, 0.074 and 0.044 mg/ml. One spectrum was recorded for each sample at each concentration and background-corrected by subtraction of a buffer-only spectrum. Corrected spectra were converted to units of mean residue ellipticity and deconvolved using the Dichroweb server ([Whitmore and Wallace, 2008]). KLC2^TPR-myc and Trp-JIP3^LZ spectra were analysed using the SELCON3 and CONTIN algorithms, respectively, using reference dataset set 4 ([Sreerama et al., 1999], [van Stokkum et al., 1990]). For each protein, the mean percentage of each secondary structure type, and the corresponding standard deviation, was calculated from the values obtained from the three concentrations. The secondary structure content for KLC2^TPR-myc and Trp-JIP3^LZ were calculated using the KLC2^TPR:JIP3^LZ crystal structure using the STRIDE server (http://webclu.bio.wzw.tum.de/cgi-bin/stride/stridecgi.py) ([Frishman and Argos, 1995]).

Series [2] relates to KLC2^TPR-myc Arg^312Glu (R312E). Nature of the series: ITC of Trp-JIP3^LZ into R312E KLC2^TPR-myc. The format is binding, murine. An excerpt: The KLC2^TPR construct used in this work comprised murine KLC2 residues 191-480, which is similar to those used in previous studies ([Nguyen et al., 2017], [Zhu et al., 2012]) but with a slightly longer N-terminal region to include residues 191-194, which are very highly conserved in Bilaterian KLCs. To construct the pMW-His6-SUMO-KLC2^TPR vector, the sequence encoding KLC2^TPR (residues 191-480) was amplified by PCR from a murine template ([Dodding et al., 2011]) and cloned into the NotI/EcoRI sites of pMW his-SUMO. […]
The Trp-JIP3^LZ protein used for CD and ITC experiments was prepared as described above for the JIP3^LZ, with the following modifications. […] The Trp-JIP3^LZ and KLC2^TPR-myc samples used in the fluorescence anisotropy-based binding competition assays were prepared as for those used in the CD and ITC studies, but the final size-exclusion step was performed in 100 mM NaCl, 25 mM HEPES, 5mM MgCl2, 1 mM TCEP (final pH 7.5).
(§1) To study binding of the Trp-JIP3^LZ and FITC-CSTN-WD2 peptide to wild-type and mutant KLC2^TPR-myc, the recombinant proteins were prepared by size exclusion chromatography in 0.1 M NaCl, 25 mM HEPES, 1 mM TCEP, final pH 7.5. […] The peptide concentration was determined by measuring the absorbance at 483 nm and using a molar extinction coefficient of 68,000 M^-1cm^-1. […] The resulting isotherms were analysed in SEDPHAT. […]

Series [3] has as its system wild-type and mutant KLC2^TPR-myc. Nature of the series: ITC with wild-type and/or TPR1-mutant KLC2^TPR-myc (collective statements). Type of series: binding, murine. The conditions noted are these: all three mutations in TPR1 of KLC2^TPR-myc; ITC. On the procedure: The Trp-JIP3^LZ protein used for CD and ITC experiments was prepared as described above for the JIP3^LZ, with the following modifications. Following 3C cleavage, contaminating GST3C was removed by incubation of the eluate with fresh, pre-equilibrated glutathione sepharose 4B resin for 2 hours at room temperature. The Trp-JIP3^LZ was then further purified by size exclusion chromatography using a Superdex 75 16/600 column equilibrated in 100 mM NaCl, 25 mM HEPES, 1 mM TCEP (final pH 7.5). Wild-type/mutant KLC2^TPR-myc samples used for CD and ITC experiments were prepared as described above the KLC2^TPR used in crystallographic studies. The Trp-JIP3^LZ and KLC2^TPR-myc samples used in the fluorescence anisotropy-based binding competition assays were prepared as for those used in the CD and ITC studies, but the final size-exclusion step was performed in 100 mM NaCl, 25 mM HEPES, 5mM MgCl2, 1 mM TCEP (final pH 7.5).
as §1

In series [4] the target is T1, KLC2^TPR-myc (Mus musculus, UniProt O88448).
T1 construct: comprised murine KLC2 residues 191-480; His6-SUMO (N, cleaved yes); made in house; host or cells: E. coli BL21(DE3) Rosetta
T1 sequence (O88448 191-480): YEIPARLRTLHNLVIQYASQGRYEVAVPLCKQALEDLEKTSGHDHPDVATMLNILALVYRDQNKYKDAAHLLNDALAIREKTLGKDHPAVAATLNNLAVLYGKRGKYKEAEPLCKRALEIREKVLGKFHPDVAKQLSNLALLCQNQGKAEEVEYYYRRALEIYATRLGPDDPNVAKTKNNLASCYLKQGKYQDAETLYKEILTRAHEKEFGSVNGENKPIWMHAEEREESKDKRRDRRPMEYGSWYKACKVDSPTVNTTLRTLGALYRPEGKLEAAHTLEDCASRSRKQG
Nature of the series: Fluorescence anisotropy-based binding competition against FITC-LFP motif peptide. More on the design: species or system murine. As to conditions: FITC-LFP peptide 300 nM, KLC2^TPR-myc 21 μM, Trp-JIP3^LZ two independent experiments, CSTN-WD1 one experiment. From the text:
Kinesin-1 activation by JIP3 requires JIP3^LZ binding to KLC^TPR ([Watt et al., 2015]). How does JIP3^LZ binding to the KLC^TPR relieve KLC regulation of the kinesin-1 molecule? Tryptophan-acidic cargoes activate kinesin-1 by releasing the KLC LFP motif from the KLC^TPR ([Yip et al., 2016]). […] We therefore wondered whether JIP3^LZ binding to the KLC2^TPR allosterically regulates interactions between KLC2^TPR and the LFP motif. We investigated this using an in vitro, fluorescence anisotropy-based binding competition assay with purified proteins and peptides ([Yip et al., 2016]). […] Thus, JIP3 activates kinesin-1 by a different mechanism to tryptophan-acidic cargoes.
The binding affinity between the FITC-labelled LFP-motif peptide and the KLC2^TPR-myc was measured essentially as described previously ([Yip et al., 2016]). FITC-labelled LFP motif peptide (300 nM) was incubated with 2-fold dilutions of KLC2^TPR-myc in assay buffer (0.1 M NaCl, 25 mM HEPES, 5 mM MgCl2, 1 mM TCEP, final pH 7.5) in triplicate in 384-well plates, for 1 hour at room temperature. Fluorescence measurements were recorded on a TecanSpark plate reader at excitation and emission wavelengths of 488 nm and 535 nm respectively. Fluorescence anisotropy values were calculated at each KLC2^TPR-myc concentration and the data were fitted with a fixed-slope dose response curve in Prism (GraphPad). […]

B1: Trp-JIP3^LZ: JIP3^LZ construct N-terminally fused to a tryptophan residue (protein)
chain: WMGKEVGNLLLENSQLLETKNALNVVKNDLIAKVDQLSGEQEVLKGELEAAKQAKVKLENRIKELEEELKRV
modifications: left off: GST, N-terminal, cleaved
notes: JIP3^LZ construct N-terminally fused to a tryptophan residue
As to B1, the “mean α-helical content” value in series [1] (CONTIN deconvolution, mean and SD from three concentrations (0.15, 0.074, 0.044 mg/ml)) was 59% ± 3%. The “ratio of ellipticities at 222 and 208 nm” value in series [1] (n = 3) was found to be 0.88 ± 0.01. For the same molecule, the “binding to Arg^312Glu mutant” value in series [2] was “retained the ability to bind”. Further, in series [3], the “effect of the three TPR1 mutations on binding” value is listed as “completely abrogated binding”. Also, the “effect on binding of KLC2^TPR-myc to FITC-labeled LFP motif peptide” value in series [4] is “no effect”.
